Test [1] deals with High affinity oncostatin M receptors on non-transfected COS-7 cells. The test is described as follows: Scatchard analysis of 125I-oncostatin M binding to non-transfected COS-7 cells (FIG. 3 experiment), phthalate oil separation.
Test [2] concerns the target T1, Human gp130 encoded by plasmid B10G, expressed on COS-7 cells (human).
T1 sequence: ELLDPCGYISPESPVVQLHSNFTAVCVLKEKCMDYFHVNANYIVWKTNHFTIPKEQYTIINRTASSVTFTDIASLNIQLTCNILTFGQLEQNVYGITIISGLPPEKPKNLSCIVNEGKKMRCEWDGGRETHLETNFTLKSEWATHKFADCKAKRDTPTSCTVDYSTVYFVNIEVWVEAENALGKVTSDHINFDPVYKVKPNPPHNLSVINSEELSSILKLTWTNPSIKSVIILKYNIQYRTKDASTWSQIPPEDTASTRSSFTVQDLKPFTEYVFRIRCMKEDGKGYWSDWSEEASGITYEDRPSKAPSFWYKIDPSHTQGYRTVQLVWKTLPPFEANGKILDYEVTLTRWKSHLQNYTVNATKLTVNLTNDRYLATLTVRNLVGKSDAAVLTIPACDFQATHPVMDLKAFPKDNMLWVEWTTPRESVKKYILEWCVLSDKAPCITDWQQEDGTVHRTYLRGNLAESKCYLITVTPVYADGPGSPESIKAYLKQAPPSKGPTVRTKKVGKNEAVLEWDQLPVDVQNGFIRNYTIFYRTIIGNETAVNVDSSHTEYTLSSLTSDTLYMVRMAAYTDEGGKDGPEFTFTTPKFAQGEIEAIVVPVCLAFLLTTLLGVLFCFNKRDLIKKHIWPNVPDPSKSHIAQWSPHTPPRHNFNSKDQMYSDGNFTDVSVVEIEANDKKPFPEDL
The test is described as follows: Scatchard analysis of 125I-oncostatin M binding to COS-7 cells transfected with B10G alone (FIG. 3 experiment), phthalate oil separation.

The target of test [3] is Receptor comprising gp130 (B10G) and LIF-R (pHLIFR-65) co-expressed on COS-7 cells (human). The test can be described thus: Scatchard analysis of 125I-oncostatin M binding to COS-7 cells co-transfected with B10G and pHLIFR-65 (curve A of FIG. 2), phthalate oil separation.

Among the data in patent US5262522 are Kd values, retold here.

The term Kd denotes the concentration at which binding is half-saturated. A low value points to a tighter complex.

B1: Oncostatin M (ligand, UniProt P13725 26-221, looked up, species assumed)
Oncostatin-M: AAIGSCSKEYRVLLGQLQKQTDLMQDTSRLLDPYIRIQGLDVPKLREHCRERPGAFPSEETLRGLGRRGFLQTLNATLGCVLHRLADLEQRLPKAQDLERSGLNIEDLEKLQMARPNILGLRNNIYCMAQLLDNSDTAEPTKAGRGASQPPTPTPASDAFQRKLEGCRFLHGYHRFMHSVGRVFSKWGESPNRSRR
modifications: 125I label in some uses
In the case of B1, the Kd in test [1] is 0.36 nM; in test [2] it was 7.7 nM; in test [3], 0.24 nM.
